The text below walks through data of patent US20140087995A1 (published 2014).

Numbered stars: 1 amine (or outer) side, 2 acyl side, 3 side chain; on linkers, the order of the positions; unused ones are H or OH. Bridge positions count the residues as written; N and C are the ends. Side chains are listed from the residue outwards. Ends that are not written are not given here. * marks the point of attachment. C20 diacid = O=C(O)CCCCCCCCCCCCCCCCCCC(=O)*; γGlu = O=C(O)[C@H](CCC(=O)[*:2])N[*:1]; AEEA = NCCOCCOCC(=O)O

First the molecules themselves.
T1: human calcitonin receptor (human, UniProt P30988 25-474)
T1 construct: whole, on cells; Membranes of a BHK tk'ts 13 cell line stably transfected with the human calcitonin receptor; also called hCTR; hCT
T1 sequence (looked up): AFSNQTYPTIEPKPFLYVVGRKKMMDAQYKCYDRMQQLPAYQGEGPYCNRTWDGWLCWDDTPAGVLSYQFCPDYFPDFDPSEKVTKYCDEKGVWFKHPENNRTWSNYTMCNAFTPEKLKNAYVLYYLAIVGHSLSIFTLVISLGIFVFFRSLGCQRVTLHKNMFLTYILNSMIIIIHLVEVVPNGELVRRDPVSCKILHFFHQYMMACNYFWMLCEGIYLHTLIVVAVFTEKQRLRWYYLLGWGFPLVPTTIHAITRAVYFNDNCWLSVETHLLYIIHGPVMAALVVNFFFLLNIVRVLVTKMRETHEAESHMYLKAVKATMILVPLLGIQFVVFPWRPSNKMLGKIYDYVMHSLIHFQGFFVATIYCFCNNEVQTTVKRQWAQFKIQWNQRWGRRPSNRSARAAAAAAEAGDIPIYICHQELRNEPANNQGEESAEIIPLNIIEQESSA

T2: rat calcitonin receptor (rat, UniProt P32214 25-516)
T2 construct: whole, on cells; Membranes of BHK tk'ts 13 cells transiently transfected with the rat calcitonin receptor; also called rCTR; rat calcitonin (a) receptor
T2 sequence (looked up): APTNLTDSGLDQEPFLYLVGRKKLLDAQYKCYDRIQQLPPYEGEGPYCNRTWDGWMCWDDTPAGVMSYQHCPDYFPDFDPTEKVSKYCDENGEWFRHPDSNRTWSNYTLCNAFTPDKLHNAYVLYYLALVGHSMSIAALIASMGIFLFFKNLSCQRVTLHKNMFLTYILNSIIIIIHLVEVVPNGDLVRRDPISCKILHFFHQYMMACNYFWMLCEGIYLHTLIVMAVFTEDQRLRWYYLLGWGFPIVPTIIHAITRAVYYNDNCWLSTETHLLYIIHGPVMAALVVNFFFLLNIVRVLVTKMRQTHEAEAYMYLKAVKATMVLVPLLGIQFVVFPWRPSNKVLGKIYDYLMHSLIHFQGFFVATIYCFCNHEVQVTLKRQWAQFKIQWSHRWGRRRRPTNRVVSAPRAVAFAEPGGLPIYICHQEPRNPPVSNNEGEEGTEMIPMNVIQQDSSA

T3: rat amylin receptor (rat calcitonin receptor + rat RAMP 3) (rat, UniProt P32214 25-516; Q9JJ73 23-147)
T3 construct: whole, on cells; Membranes of BHK tk'ts 13 cells transiently transfected with the rat calcitonin receptor and rat RAMP 3; also called rAmylin-R; rat amylin 3(a) receptor
T3 sequence (looked up) 1: T2 sequence (looked up)
T3 sequence (looked up) 2: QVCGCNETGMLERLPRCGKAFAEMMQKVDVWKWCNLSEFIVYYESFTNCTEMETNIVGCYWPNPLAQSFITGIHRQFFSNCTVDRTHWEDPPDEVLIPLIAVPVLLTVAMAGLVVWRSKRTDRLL

T4: rat calcitonin receptor (rat, UniProt P32214 25-516)
T4 construct: whole, on cells; membranes of transiently transfected BHK tk'ts 13 cells (Assay VIII); also called rCTR; rat calcitonin (a) receptor
T4 sequence (looked up): T2 sequence (looked up)

T5: human calcitonin receptor (human, UniProt P30988 25-474)
T5 construct: whole, on cells; membranes of stably transfected BHK cells (Assay VII); also called hCTR; hCT
T5 sequence (looked up): T1 sequence (looked up)

T6: rat amylin receptor (rat calcitonin receptor + rat RAMP 3) (rat, UniProt P32214 25-516; Q9JJ73 23-147)
T6 construct: whole, on cells; membranes of transiently transfected BHK tk'ts 13 cells (Assay VI); also called rAmylin-R; rat amylin 3(a) receptor
T6 sequence (looked up) 1: T2 sequence (looked up)
T6 sequence (looked up) 2: T3 sequence (looked up) 2

B1: N^α1 N^α1-[(4S)-4-carboxy-4-[[(4S)-4-carboxy-4-(19-carboxynonadecanoylamino)butanoyl]amino]butanoyl]-[Glu14,Arg17,Pro21,Pro27]-h-amylin (peptide)
peptide: {C20 diacid-γGlu-γGlu}-KCNTATCATQRLAEFLRHSSPNFGAIPSSTNVGSNTY-NH2
modifications: disulfide 2-7
SMILES: CC[C@H](C)[C@H](NC(=O)[C@H](C)NC(=O)CNC(=O)[C@H](Cc1ccccc1)NC(=O)[C@H](CC(N)=O)NC(=O)[C@@H]1CCCN1C(=O)[C@H](CO)NC(=O)[C@H](CO)NC(=O)[C@H](Cc1c[nH]cn1)NC(=O)[C@H](CCCNC(=N)N)NC(=O)[C@H](CC(C)C)NC(=O)[C@H](Cc1ccccc1)NC(=O)[C@H](CCC(=O)O)NC(=O)[C@H](C)NC(=O)[C@H](CC(C)C)NC(=O)[C@H](CCCNC(=N)N)NC(=O)[C@H](CCC(N)=O)NC(=O)[C@@H](NC(=O)[C@H](C)NC(=O)[C@@H]1CSSC[C@H](NC(=O)[C@H](CCCCN)NC(=O)CC[C@H](NC(=O)CC[C@H](NC(=O)CCCCCCCCCCCCCCCCCCC(=O)O)C(=O)O)C(=O)O)C(=O)N[C@@H](CC(N)=O)C(=O)N[C@@H]([C@@H](C)O)C(=O)N[C@@H](C)C(=O)N[C@@H]([C@@H](C)O)C(=O)N1)[C@@H](C)O)C(=O)N1CCC[C@H]1C(=O)N[C@@H](CO)C(=O)N[C@@H](CO)C(=O)N[C@H](C(=O)N[C@@H](CC(N)=O)C(=O)N[C@H](C(=O)NCC(=O)N[C@@H](CO)C(=O)N[C@@H](CC(N)=O)C(=O)N[C@H](C(=O)N[C@@H](Cc1ccc(O)cc1)C(N)=O)[C@@H](C)O)C(C)C)[C@@H](C)O
notes: modifications are with respect to human amylin; also called compound 15
B2: N^ε1-[2-[2-[2-[[(4S)-4-carboxy-4-(19-carboxynonadecanoylamino)butanoyl]amino]ethoxy]ethoxy]acetyl]-[Arg17,Pro21,Pro27,Arg35]-h-amylin (peptide)
peptide: K([AEEA-γGlu-C20 diacid])CNTATCATQRLANFLRHSSPNFGAIPSSTNVGSRTY-NH2
modifications: disulfide 2-7; N-terminus assumed
SMILES: CC[C@H](C)[C@H](NC(=O)[C@H](C)NC(=O)CNC(=O)[C@H](Cc1ccccc1)NC(=O)[C@H](CC(N)=O)NC(=O)[C@@H]1CCCN1C(=O)[C@H](CO)NC(=O)[C@H](CO)NC(=O)[C@H](Cc1c[nH]cn1)NC(=O)[C@H](CCCNC(=N)N)NC(=O)[C@H](CC(C)C)NC(=O)[C@H](Cc1ccccc1)NC(=O)[C@H](CC(N)=O)NC(=O)[C@H](C)NC(=O)[C@H](CC(C)C)NC(=O)[C@H](CCCNC(=N)N)NC(=O)[C@H](CCC(N)=O)NC(=O)[C@@H](NC(=O)[C@H](C)NC(=O)[C@@H]1CSSC[C@H](NC(=O)[C@@H](N)CCCCNC(=O)COCCOCCNC(=O)CC[C@H](NC(=O)CCCCCCCCCCCCCCCCCCC(=O)O)C(=O)O)C(=O)N[C@@H](CC(N)=O)C(=O)N[C@@H]([C@@H](C)O)C(=O)N[C@@H](C)C(=O)N[C@@H]([C@@H](C)O)C(=O)N1)[C@@H](C)O)C(=O)N1CCC[C@H]1C(=O)N[C@@H](CO)C(=O)N[C@@H](CO)C(=O)N[C@H](C(=O)N[C@@H](CC(N)=O)C(=O)N[C@H](C(=O)NCC(=O)N[C@@H](CO)C(=O)N[C@@H](CCCNC(=N)N)C(=O)N[C@H](C(=O)N[C@@H](Cc1ccc(O)cc1)C(N)=O)[C@@H](C)O)C(C)C)[C@@H](C)O
notes: modifications are with respect to human amylin; also called compound 38
B3: N^α1-[(4S)-4-carboxy-4-(19-carboxynonadecanoylamino)butanoyl]-[Arg17,Pro21,Pro27]-h-amylin (peptide)
peptide: KCNTATCATQRLANFLRHSSPNFGAIPSSTNVGSNTY
modifications: C20 diacid-gGlu on the alpha amino group of the N-terminal residue (Lys 1); disulfide bridge between the two Cys residues; C-terminal amide
notes: analogue of human amylin; also called compound 21

The first test deals with T1, human calcitonin receptor. Briefly: IC50 at hCTR divided by IC50 at hAmylin-R (reference). The method, then: (§1) The resulting pellet was resuspended, homogenized and centrifuged (20.000 rpm, 15 min) in a buffer containing 20 mM Na-HEPES and 0.1 mM EDTA (pH 7.4, buffer 2). The resulting pellet was resuspended in buffer 2 and protein concentration was measured (BCA protein Assay, Pierce). The homogenate was kept cold during the whole procedure. The membranes were kept at −80° C. until use. The assay was performed in a 384 well Optiplate (PerkinElmer) in a total volume of 40 ul. Membranes were mixed with SPA beads. Final concentration of membranes 35 ng/μL final and SPA beads was 0.05 mg/well. Test-compounds were dissolved in DMSO and further diluted in assay buffer (50 mM Hepes, pH 7.4, 1 mM CaCl2, 5 mM MgCl₂, 0.1% OA and 0.02% Tween20). […] The final mixture was incubated with shaking at 400 rpm for 120 min at 25° C. prior to centrifugation (1500 rpm, 10 min). Samples were analyzed on TopCounter™ (Packard). The IC₅₀ was calculated using (one site binding competition analysis) GraphPad Prism5 as a measure of receptor affinity.
(§2) Membranes were prepared in the following way; the cells were rinsed with PBS and incubated with Versene for approximately 5 min before harvesting. The cells were flushed with PBS and the cell-suspension was centrifuged for 5 min at 1000 rpm. Cells were homogenized (Ultrathurrax) in a buffer containing 20 mM Na-HEPES and 10 mM EDTA (pH 7.4) and centrifuged at 20.000 rpm for 15 min. The resulting pellet was resuspended, homogenized and centrifuged (20.000 rpm, 15 min) in a buffer containing 20 mM Na-HEPES and 0.1 mM EDTA (pH 7.4, buffer 2). The resulting pellet was resuspended in buffer 2 and protein concentration was measured (BCA protein Assay, Pierce). The homogenate was kept cold during the whole procedure. The membranes were kept at −80° C. until use. Assay was performed in a 384 well Optiplate (PerkinElmer) in a total volume of 40 ul. Membranes were mixed with SPA beads.
B1: the “Ratio hCT/hAmylin binding” value amounted to 26.

In the next test the target is T2, rat calcitonin receptor. The experiment in a line: SPA competition vs 125I-calcitonin, membranes with rat CTR (Assay VIII).
As to B2, the half-maximal inhibitory concentration (IC50) was found to be 38 nM.

The next test has as its target T3, rat amylin receptor (rat calcitonin …). The experiment in a line: SPA competition vs 125I-rat amylin, membranes with rat CTR + rat RAMP3 (Assay VI). Here is the method: The binding assay was performed using scintillation proximity assay (SPA) beads (RPNQ0001) from PerkinElmer and cell membranes from the Amylin 3(a)/CRE-luc cells (as described in Assay (II)) were used. Membranes were prepared in the following way; the cells were rinsed with PBS and incubated with Versene for approximately 5 min before harvesting. The cells were flushed with PBS and the cell-suspension was centrifuged for 5 min at 1000 rpm. Cells were homogenized (ultrathurrax) in a buffer containing 20 mM Na-HEPES and 10 mM EDTA (pH 7.4) and centrifuged at 20.000 rpm for 15 min. The resulting pellet was resuspended, homogenized and centrifuged (20.000 rpm, 15 min) in a buffer containing 20 mM Na-HEPES and 0.1 mM EDTA (pH 7.4, buffer 2). The resulting pellet was resuspended in buffer 2 and protein concentration was measured (BCA protein Assay, Pierce). The homogenate was kept cold during the whole procedure. The membranes were kept at −80° C. until use. The assay was performed in a 384 well Optiplate (PerkinElmer) in a total volume of 40 ul. Membranes were mixed with SPA beads. Final concentration of membranes 35 ng/μL final and SPA beads was 0.05 mg/well. Test-compounds were dissolved in DMSO and further diluted in assay buffer (50 mM Hepes, pH 7.4, 1 mM CaCl2, 5 mM MgCl₂, 0.1% OA and 0.02% Tween20). […] The final mixture was incubated with shaking at 400 rpm for 120 min at 25° C. prior to centrifugation (1500 rpm, 10 min). Samples were analyzed on TopCounter™ (Packard). The IC₅₀ was calculated using (one site binding competition analysis) GraphPad Prism5 as a measure of receptor affinity.
Cells were grown in DMEM with 10% FBS and 1% Pen/Strep. Approximately 48 hours after transfection, the cells were harvested and membranes were prepared.
As for B2, the IC50 was 0.383 nM.

Another test has as its target T4, rat calcitonin receptor. The experiment in a line: IC50 on rat calcitonin receptor divided by IC50 on rat amylin receptor (SPA competition).
Turning to B3, the “Ratio rCT/rAmylin binding” value worked out at 18.8.

The next test concerns the target T5, human calcitonin receptor. Briefly: IC50 on human calcitonin receptor divided by IC50 on human amylin receptor (SPA competition). The method, then:
as §1, §2
On to B3, for which the “Ratio hCT/hAmylin binding” value worked out at 24.4.

A further test deals with T4, rat calcitonin receptor. Briefly: SPA competition with 125I-calcitonin, membranes of BHK cells with rat calcitonin receptor (Assay VIII).
Consider B3, for which the IC50 worked out at 27.9 nM.

For a further test, the target named is T6, rat amylin receptor (rat calcitonin …). The experiment in a line: SPA competition with 125I-rat amylin, membranes of BHK cells with rat calcitonin receptor + rat RAMP3 (Assay VI).
For B3, the IC50 stood at 1.48 nM.
